Laboratory results from article PMC6917914 (Nature chemical biology, 2019).

Target: His6-DDA1 (full-length human DDA1) (human, UniProt Q9BW61 1-102)
Experiment: crystal structure

binding result: binds
B1: DCAF15_(split) (Strep II Avi-DCAF15 NTD residues 30-264 with Strep II Avi-DCAF15 CTD residues 383-600) (domain or fragment)
chain 1: GRRREHVLKQLERVKISGQLSPRLFRKLPPRVCVSLKNIVDEDFLYAGHIFLGFSKCGRYVLSYTSSSGDDDFSFYIYHLYWWEFNVHSKLKLVRQVRLFQDEEIYSDLYLTVCEWPSDASKVIVFGFNTRSANGMLMNMMMMSDENHRDIYVSTVAVPPPGRCAACQDASRAHPGDPNAQCLRHGFMLHTKYQVVYPFPTFQPAFQLKKDQVVLLNTSYSLVACAVSVHSAGDR
chain 2: EPGYVNYTKLYYVLESGEGTEPEDELEDDKISLPFVVTDLRGRNLRPMRERTAVQGQYLTVEQLTLDFEYVINEVIRHDATWGHQFCSFSDYDIVILEVCPETNQVLINIGLLLLAFPSPTEEGQLRPKTYHTSLKVAWDLNTGIFETVSVGDLTEVKGQTSGSVWSSYRKSCVDMVMKWLVPESSGRYVNRMTNEALHKGCSLKVLADSERYTWIVL
